Blank lines part the entries; values can stand above or below the binder they belong to.
Legend:
[1] = molecular target: T1, human urokinase-type plasminogen activator receptor (uPAR), cell-bound (human, UniProt Q03405 23-305); assay: FACS, B300.19/hu-uPAR cells
T1 construct: whole, on cells; Full length cDNA expressed on B300.19 and L929 transfectants; endogenous on U937 (and PC-3 used as positive control cells); also called hu-uPAR
Protocol: Binding of the antibodies to cell-bound uPAR was tested with the murine pre-B cell line B300.19 (ATCC) transfected to express human uPAR, and B300.19 parental cells as a control, using Fluorometric Microvolume Assay Technology (FMAT). 5,000 cells/well were employed for the assay. […] The bound antibodies were detected using goat anti-human IgG Cy5 conjugate at 400 ng/ml (goat anti-mouse IgG Cy5 conjugate for mouse antibody control). […] For each dye stained, the ratio of the GeoMean values between positive and negative cells were tabulated.

[2] = molecular target: T2, cynomolgus monkey uPAR, cell-bound (cynomolgus monkey, UniProt Q9GK78 23-305); assay: FACS on 293T cells expressing cynomolgus uPAR, GeoMean of the peak shift
T2 construct: whole, on cells; also called cyno-uPAR; uPAR on CHOK1 or 293T transfectants
T2 sequence (Q9GK78 23-305): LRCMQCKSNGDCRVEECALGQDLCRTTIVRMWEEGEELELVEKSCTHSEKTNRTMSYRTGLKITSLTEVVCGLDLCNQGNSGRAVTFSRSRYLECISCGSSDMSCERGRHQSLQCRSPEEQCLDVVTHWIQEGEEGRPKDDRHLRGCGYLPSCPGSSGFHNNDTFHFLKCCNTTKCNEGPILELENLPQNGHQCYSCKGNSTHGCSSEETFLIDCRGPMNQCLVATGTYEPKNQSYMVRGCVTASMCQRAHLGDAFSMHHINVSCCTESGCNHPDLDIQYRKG

T1 sequence (Q03405 23-305): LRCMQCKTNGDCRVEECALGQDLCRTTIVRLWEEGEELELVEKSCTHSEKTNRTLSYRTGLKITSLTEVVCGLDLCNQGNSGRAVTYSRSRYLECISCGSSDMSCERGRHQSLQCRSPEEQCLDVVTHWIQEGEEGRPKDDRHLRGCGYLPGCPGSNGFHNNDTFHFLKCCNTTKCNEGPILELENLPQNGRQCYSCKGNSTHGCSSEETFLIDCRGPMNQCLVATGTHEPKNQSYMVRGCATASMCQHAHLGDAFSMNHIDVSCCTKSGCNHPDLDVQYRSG

gCy5 Geo Mean Pos Cells [1]: 282
B1: 4.13.2 (antibody, V domains shown)
VH: EVQLLESGGGLVQPGGSLRLSCAASGFTFSSYAMSWVRQAPGKGLEWVLGISGSGGSTYYADSVKGRFTISRDNSKNTLYLQMNSLRAEDTAVYYCAKDGYGDYVGWYFDLWGRGTLVTVSS
VL: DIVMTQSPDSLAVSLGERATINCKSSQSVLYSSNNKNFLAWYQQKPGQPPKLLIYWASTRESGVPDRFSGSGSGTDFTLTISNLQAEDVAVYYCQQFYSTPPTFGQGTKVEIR
notes: Variable domains only; gamma 4 by chain name, kappa; also called 4.13.1; 4.13.1g4

binding result [2]: binds
B2: 3.8.3 (antibody, V domains shown)
VH: EVQLVESGGGLVQPGGSLRLSCAASGFTFSSYWMSWVRQAPGKGLEWVANIKQHGSEKYYVDSVKGRFTISRDNAKNSLYLQMNSLRAEDTAVYYCAREEAYYYDNSGYYWYFDLWARGTLVTVSS
VL: DIQMTQSPSSVSASIGDRVTITCRASQGISSWLAWYQQKPGKTPKLLIYAASSLQSGVPSRFSGSGSGTDFTLTISSLQPEDFATYYCQQADSFPWTFGQGTKVEIK
notes: Variable domains only; gamma 2 by chain name, kappa; also called 3.8.3g2; 3.8.3k

Reference: US20120108797A1 (AstraZeneca / MedImmune, published 2012)
